In doi:10.1101/2025.10.17.683123:

Biological target: HCMV Pr S225M (human cytomegalovirus) (UniProt P16753)
Test: SEC-MALS; HCMV Pr alone on SEC, eluate into Wyatt Dawn Pro and Optilab; concentration not given

HCMV Pr S225M (from UniProt P16753) (enzyme)
stoichiometry N: 2
